# Test results published in patent US11129879B2, “Methods for the treatment of neurological disorders and diseases using FNDC5” (Dana-Farber Cancer Institute, Inc., priority 2013, dated 2021).
# Columns and labels:
# primary cortical neurons [1] = experiment: gene expression by qPCR in cultured primary cortical neurons; type: cell-based, mouse; conditions: for Fndc5 gene expression: 1 μM; for Fndc5 gene expression / Fndc5 mRNA expression: DIV 7, vs vehicle; for Fndc5 mRNA expression: 100 ng/ml
# Description: (§1) Primary cortical and hippocampal neurons were isolated as described in great detail previously in Bartlett and Banker (1984) J. Neurosci. 4, 1944-1953. Briefly, cortices and hippocampi were dissected from E16-E18 embryos, dissociated with trypsin (Sigma) and DNAse (Roche), and plated on poly-L-lysine-coated (Sigma) plates. Dissociated neurons were cultured in Neurobasal Media supplemented with B27, GlutaMAX™ (Life Technologies), and Penicillin-Streptomycin (Cellgro).
# (§2) Cells or tissues were lysed and homogenized in TRIzol (Invitrogen). Total RNA was subsequently isolated using the RNeasy Mini or Micro Kit (Qiagen). First-strand cDNA was generated using the High Capacity cDNA Reverse Transcription Kit (Life Technologies), and qPCR was performed using SYBR Green Master Mix in a 7900HT Real-Time PCR system (Applied Biosystems). mRNA quantities were normalized to Rsp18 after determination by the comparative Ct method (Schmittgen and Livak (2008) Nat. Protocols 3, 1101-1108).
# Primary cortical neurons were transduced at the indicated time-points and were harvested 48 hrs later for RNA isolation. For knockdown studies, primary cortical neurons were transduced with viral supernatants from HEK293T cells transfected with pLKO.1 vector (TRC) containing the specified shRNAs at the indicated time-points.
# substantia nigra = conditions: 4 mg/kg/d, harvested 2 days later, microarray, vs untreated mice; cited from earlier work
# SH-SSY5Y neurons = experiment: Fndc5 gene expression by qPCR in SH-SSY5Y neurons; type: cell-based, human; conditions: treatment with the neurotoxin
# Description: The cells were differentiated with retinoic acid. Gene expression was assessed with qPCR.
# [2] = system: primary hippocampal neurons; experiment: gene expression by qPCR in cultured primary hippocampal neurons; type: cell-based, mouse
# Description: At the indicated days in vitro (DIV) mRNA was prepared and gene expression was assessed by qPCR. Data are shown as mRNA levels relative to Rsp18 expression, expressed as mean±SEM. *P<0.05 compared to DIV 1 control group. […] Forty-eight hours later mRNA was prepared and gene expression was assessed by qPCR. Data are shown as mRNA levels relative to Rsp18 expression, expressed as mean±SEM. *P<0.05 compared to corresponding GFP expressing control group. […] Four days later mRNA was prepared and gene expression was assessed by qPCR. Data are shown as mRNA levels relative to Rsp18 expression, expressed as mean±SEM. *P<0.05 compared to corresponding shLuc expressing control group. […] Data are shown as mRNA levels relative to Rsp18 expression, expressed as mean±SEM. *P<0.05 compared to vehicle only group. […] Four days later mRNA was prepared and gene expression was assessed by qPCR. Data are shown as mRNA levels relative to Rsp18 expression, expressed as mean±SEM. *P<0.05 compared to corresponding shLuc expressing control group. […] Data are shown as mRNA levels relative to Rsp18 expression, expressed as mean±SEM. *P<0.05 compared to vehicle only group.
# as §1
# as §2, with “Total RNA was subsequently isolated using the RNeasy Mini or Micro Kit (Qiagen).” left out
# primary cortical neurons [3] = experiment: irisin stimulation of silenced primary cortical neurons, mRNA levels of genes of interest; type: cell-based, mouse; conditions: 1 ug/mL (Enzo) at DIV7 after silencing with 1 uM TTX and 100 uM APV; time course, p<0.05 from baseline
# Description: Primary cortical neurons were silenced at DIV6 with 1 uM TTX and 100 uM APV overnight. The neurons were then stimulated at DIV7 using irisin (1 ug/mL; Enzo; Product No. ADI-908-307-0010). […] In a separate analysis, primary cortical neurons were silenced at DIV6 with 1 uM TTX and 10 uM MK801 overnight. […] In still a separate analysis, primary cortical neurons were silenced at DIV6 with 1 uM TTX and 100 uM APS overnight. The neurons were then stimulated at […] using irisin (1 ug/mL; Enzo; Product No. ADI-908-307-0010). […] In yet another separate analysis, primary cortical neurons were silenced at DIV7 with 1 uM TTX and 100 uM APS overnight. The neurons were then stimulated at DIV8 using 1 ug/mL of irisin from one of two vendors (i.e., either from Enzo, Product No. ADI-908-307-0010, or from Phoenix, Product No. 067-29A).
# primary cortical neurons [4] = experiment: CellTiter-Glo Luminescent Cell Viability Assay of cultured neurons; type: cell-based, mouse; conditions: treatment during in vitro culture for 7 days, relative to hFc
# Description: Cell viability of cultured neurons was assessed using CellTiter-Glo® Luminescent Cell Viability Assay (Promega, Madison, Wis.) according to the manufacturer's instructions. Luminescence of cell lysates was measured using the FLUOstar Omega plate reader (BMG LABTECH, Offenburg, Germany).
# primary cortical neurons [5] = experiment: binding of irisinFc to PFA-fixed cultured neurons, detected by secondary anti-human Fc fluorescent antibody; set-up: species or system mouse; conditions: PFA-fixed cultures, vs humanFc
# Description: PFA-fixed cultured primary cortical neurons were incubated with either irisin-Fc or humanFc as control and binding of irisinFc was detected by a secondary anti-human Fc fluorescent antibody. IrisinFc clearly binds to neurons in culture, especially given that the observed pattern of the binding and the fact that the cultures are highly enriched in neurons (>90%).
# Wild type C56/B16 mice = experiment: peripheral injections of irisin-Fc, Bdnf gene expression by qPCR; type: in vivo, mouse; conditions: 5 mg/kg i.p., RNA 10d later, vs humanFc
# Description: Wild type C56/B16 mice were injected with either irisinFc or humanFc (5 mg/kg) i.p. Total RNA for qPCR was harvested 10d later. Results are shown as mean+SEM, n=6, *P<0.05.
# [6] = system: human embryonic stem cells differentiated into motor neurons (eMN); experiment: human embryonic stem cells differentiated into motor neurons (eMN), gene expression by qPCR; type: cell-based
# Description: Gene expression was assessed with qPCR.
# Growth of human embryonic stem cells, differentiation of human embryonic stem cells into motor neurons, and glial co-culture were performed as described in DiGiorgio et al. (2008) Cell Stem Cell 3:637-648.
# [7] = 1 ug/ml at DIV 5 and 6, vs vehicle
# [8] = 5× concentrated conditioned media from CHO cell lines, RNA next day, vs hFc
molecule,measurement,setting,value
"CC(C)(Sc1ccc(CCN(CCCCC2CCCCC2)C(=O)NC2CCCCC2)cc1)C(=O)O [GW7647, reference compound]",Fndc5 gene expression,primary cortical neurons [1]; overnight,no effect on Fndc5 gene expression
"CN1CC=C(c2ccccc2)CC1 [MPTP, 1-methyl-4-phenyl-1,2,3,6-tetrahydropyridine]",Fndc5 expression in substantia nigra,substantia nigra,significantly lower Fndc5 expression
"COC(=O)[C@@]1(O)C[C@H]2O[C@]1(C)n1c3ccccc3c3c4c(c5c6ccccc6n2c5c31)C(=O)NC4 [K252a, reference compound]",reduction of Fndc5 mRNA expression by BDNF,"primary cortical neurons [1]; pre-incubation with 50 nM, then BDNF 100 ng/ml overnight",This effect was abolished
C=C(C)[C@H]1Cc2c(ccc3c2O[C@@H]2COc4cc(OC)c(OC)cc4[C@@H]2C3=O)O1 [rotenone],Fndc5 gene expression,SH-SSY5Y neurons,reduces Fndc5 gene expression
"IGF-1: recombinant mouse insulin-like growth factor 1, R&D Systems",Fndc5 mRNA expression,primary cortical neurons [1]; overnight,only BDNF stimulation significantly reduced
"COc1cc(/C=C(\C#N)C(=O)Nc2nnc(C(F)(F)F)s2)ccc1OCc1ccc(C(F)(F)F)cc1C(F)(F)F [XCT 790, reference compound]",Fndc5 gene expression,primary cortical neurons [1]; overnight,significantly reduced Fndc5 gene expression
"CCN(CC)c1ccc(/C=N/NC(=O)c2ccc(O)cc2)cc1 [DY131, reference compound]",Fndc5 gene expression,primary cortical neurons [1]; overnight,had no effect on Fndc5 gene expression
"Cc1cc(SCc2sc(-c3ccc(C(F)(F)F)c(F)c3)nc2C)ccc1OCC(=O)O [GW0742, reference compound]",Fndc5 gene expression,primary cortical neurons [1]; overnight,no effect on Fndc5 gene expression
"BDNF: recombinant human brain-derived neurotrophic factor, PeproTech (protein) HSDPARRGELSVCDSISEWVTAADKKTAVDMSGGTVTVLEKVPVSKGQLKQYFYETKCNPMGYTKEGCRGIDKRHWNSQCRTTQSYVRALTMDSKKRIGWRFIRIDTSCVCTLTIKRGR",Fndc5 mRNA expression,primary cortical neurons [1]; overnight,only BDNF stimulation significantly reduced Fndc5 mRNA expression
same,lowest concentration that significantly reduced Fndc5 gene expression,"primary cortical neurons [1]; overnight, 0.1-100 ng/ml tested, dose-response observed",1 ng/mL
same,Fndc5 gene expression,"[2]; 100 ng/ml, overnight, DIV 7, vs vehicle",reduced Fndc5 gene expression
"recombinant irisin: commercially available recombinant irisin, secreted form of FNDC5 (Phoenix Pharmaceuticals; Enzo in b292) (protein, UniProt Q8NAU1 1-191, looked up, Irisin) Irisin: MQAARGGAGRPERPGRPGRGPERERERPPGAGAASPCAAPGLPAGGATIHPGSPSAWPPRARAALRLWLGCVCFALVQADSPSAPVNVTVRHLKANSAVVSWDVLEDEVVIGFAISQQKKDVRMLRFIQEVNTTTRSCALWDLEEDTEYIVHVQAISIQGQSPASEPVLFKTPREAEKMASKNKDEVTMKE",Bdnf gene expression,[2]; [7],did not reach statistical significance
same,"gene program (Arc, cFos, Npas4, and Zif268)",[2]; [7],induced a similar gene program
same,changes in mRNA levels of genes of interest,primary cortical neurons [3],many of the analyzed genes have statistically significant changes
"irisinFc: Fc fusion of irisin (murine Fndc5 residues 29-140); amino acid sequence given in b228 (protein, /note=“Description of Artificial Sequence IrisinFc polypeptide”) DSPSAPVNVTVRHLKANSAVVSWDVLEDEVVIGFAISQQKKDVRMLRFIQEVNTTTRSCALWDLEEDTEYIVHVQAISIQGQSPASEPVLFKTPREAEKMASKNKDEVTMKEGGGGAGGGGVECPPCPAPPVAGPSVFLFPPKPKDTLMISRTPEVTCVVVDVSHEDPEVQFNWYVDGVEVHNAKTKPREEQFNSTFRVVSVLTVVHQDWLNGKEYKCKVSNKGLPAPIEKTISKTKGQPREPQVYTLPPSREEMTKNQVSLTCLVKGFYPSDIAVEWESNGQPENNYKTTPPMLDSDGSFFLYSKLTVDKSRWQQGNVFSCSVMHEALHNHYTQKSLSLSPGK",Bdnf expression,primary cortical neurons [1]; [8],increased expression of Fndc5 and Bdnf
same,Fndc5 expression,primary cortical neurons [1]; [8],increased expression of Fndc5 and Bdnf
same,cell viability,primary cortical neurons [4],significantly increased cell viability
same,binding to neurons,primary cortical neurons [5],neurons bind irisinFc
same,Bdnf expression in the cerebellum,Wild type C56/B16 mice,significant increase in Bdnf expression
same,Bdnf expression in the sciatic nerve,Wild type C56/B16 mice,significant increase in Bdnf expression
same,eMN synapse formation,[6],increases eMN synapse formation
same,motor neuron differentiation of eMN,[6],promotes motor neuron differentiation
"NGF: recombinant mouse nerve growth factor, EMD Millipore (protein, UniProt P01139 122-241, looked up) Beta-nerve growth factor: SSTHPVFHMGEFSVCDSVSVWVGDKTTATDIKGKEVTVLAEVNINNSVFRQYFFETKCRASNPVESGCRGIDSKHWNSYCTTTHTFVKALTTDEKQAAWRFIRIDTACVCVLSRKATRRG",Fndc5 mRNA expression,primary cortical neurons [1]; overnight,only BDNF stimulation significantly reduced
"GDNF: recombinant human glial cell-derived neurotrophic factor, Sigma (protein, UniProt P39905 78-211, looked up) Glial cell line-derived …: SPDKQMAVLPRRERNRQAAAANPENSRGKGRRGQRGKNRGCVLTAIHLNVTDLGLGYETKEELIFRYCSGSCDAAETTYDKILKNLSRNRRLVSDKVGQACCRPIAFDDDLSFLDDNLVYHILRKHSAKRCGCI",Fndc5 mRNA expression,primary cortical neurons [1]; overnight,only BDNF stimulation significantly reduced
"CNTF: recombinant human ciliary neurotrophic factor, Sigma (protein, UniProt P26441 1-200, looked up) Ciliary neurotrophic factor: MAFTEHSPLTPHRRDLCSRSIWLARKIRSDLTALTESYVKHQGLNKNINLDSADGMPVASTDQWSELTEAERLQENLQAYRTFHVLLARLLEDQQVHFTPTEGDFHQAIHTLLLQVAAFAYQIEELMILLEYKIPRNEADGMPINVGDGGLFEKKLWGLKVLQELSQWTVRSIHDLRFISSHQTGIPARGSHYIANNKKM",Fndc5 mRNA expression,primary cortical neurons [1]; overnight,only BDNF stimulation significantly reduced
